{
  "source": "patent US20250026813A1",
  "biological_target": "SARS-CoV-2 spike trimer protein (wild type), in the envelope of lentiviral pseudovirus particles (SARS-CoV-2) (UniProt P0DTC2)",
  "assay": "cell-based or functional assay",
  "data": [
    {"substance": "4A8 (antibody)", "values": [
      {"measurement": "Fold change relative to SAD S35 antibody", "value": 5.44, "unit": "fold"}
    ]}
  ]
}
